The results in this text go back to article PMC10945755 (Proceedings of the National Academy of Sciences of the …, 2024).

The labels stand for the following.
B1: GABARAP (natural protein)
chain: MKFVYKEEHPFEKRRSEGEKIRKKYPDRVPVIVEKAPKARIGDLDKKKYLVPSDLTVGQFYFLIRKRIHLRAEDALFFFVNNVIPPTSATMGQLYQEHHEEDFFLYIAYSDESVYGL
B2: RB1CC1(1396-1594) (domain or fragment, UniProt Q8TDY2 1396-1594, looked up)
chain: SFVPSPYVATAPELYGACAPELPGESDRSAVETADEGRVDSAMETSMMSVQENIHMLSEEKQRIMLLERTLQLKEEENKRLNQRLMSQSMSSVSSRHSEKIAIRDFQVGDLVLIILDERHDNYVLFTVSPTLYFLHSESLPALDLKPGEGASGASRRPWVLGKVMEKEYCQAKKAQNRFKVPLGTKFYRVKAVSWNKKV
B3: RB1CC1(1286-1395) (domain or fragment, UniProt Q8TDY2 1286-1395, looked up)
chain: SLVAELQEKLQEEKAKFLEQLEEQEKRKNEEMQNVRTSLIAEQQTNFNTVLTREKMRKENIINDLSDKLKSTMQQQERDKDLIESLSEDRARLLEEKKKLEEEVSKLRSS
B4: RB1CC1(1450-1594) (domain or fragment, UniProt Q8TDY2 1450-1594, looked up)
chain: HMLSEEKQRIMLLERTLQLKEEENKRLNQRLMSQSMSSVSSRHSEKIAIRDFQVGDLVLIILDERHDNYVLFTVSPTLYFLHSESLPALDLKPGEGASGASRRPWVLGKVMEKEYCQAKKAQNRFKVPLGTKFYRVKAVSWNKKV
B5: RB1CC1(1343-1395) (domain or fragment, UniProt Q8TDY2 1343-1395, looked up)
chain: KENIINDLSDKLKSTMQQQERDKDLIESLSEDRARLLEEKKKLEEEVSKLRSS
B6: Trx-NAP1(1-75) (domain or fragment, UniProt Q9H6S1 1-75, looked up)
chain: MDALVEDDICILNHEKAHKRDTVTPVSIYSGDESVASHFALVTAYEDIKKRLKDSEKENSLLKKRIRFLEEKLIA
B7: NAP1(1-75) (domain or fragment, UniProt Q9H6S1 1-75, looked up)
chain: B6 chain

The target of data set [1] is T1, TAX1BP1(1-237) (UniProt Q86VP1 1-237, labeled (label not named) in the spectral shift binding assay). The experiment in a line: SEC. A general note: In gel filtration, larger molecules generally elute earlier.
T1 sequence (Q86VP1 1-237): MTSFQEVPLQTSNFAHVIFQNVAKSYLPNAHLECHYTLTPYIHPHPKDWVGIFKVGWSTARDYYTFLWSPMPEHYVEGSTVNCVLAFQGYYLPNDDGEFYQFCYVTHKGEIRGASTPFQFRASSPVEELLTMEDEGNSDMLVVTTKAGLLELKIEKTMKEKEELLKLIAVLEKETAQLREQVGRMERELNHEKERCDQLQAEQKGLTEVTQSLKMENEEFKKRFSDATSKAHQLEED
Data set [2] concerns the target TAX1BP1(1-237)/RB1CC1(1286-1395) complex (UniProt Q86VP1 1-237; Q8TDY2 1286-1395). In words: SEC.
For data set [3], the target named is TAX1BP1(1-237)/NAP1(1-75)/RB1CC1(1286-1594) ternary complex (UniProt Q86VP1 1-237; Q9H6S1 1-75; Q8TDY2 1286-1594). In words: SEC.
Chain of TAX1BP1(1-237)/NAP1(1-75)/RB1CC1(1286-1594) ternary complex (Q86VP1 1-237, one chain of several): as the sequence (Q86VP1 1-237) above
The target of the next data set is TAX1BP1(1-121) (UniProt Q86VP1 1-121, 15N-labeled in the NMR titrations). In words: ITC. (Isothermal titration calorimetry measures the heat released or taken up as one component is titrated into another.)
Chain of TAX1BP1(1-121) (Q86VP1 1-121): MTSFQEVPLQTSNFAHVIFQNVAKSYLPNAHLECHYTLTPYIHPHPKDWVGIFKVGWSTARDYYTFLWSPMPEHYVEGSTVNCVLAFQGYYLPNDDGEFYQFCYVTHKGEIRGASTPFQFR
The data set “AUC” deals with the molecule itself. In words: AUC.
The target in data set [4] is T1, TAX1BP1(1-237). The experiment in a line: spectral shift binding assay.
The target in data set [5] is T2, Trx-TAX1BP1(1-237) (UniProt Q86VP1 1-237). The experiment in a line: AUC.
T2 sequence (Q86VP1 1-237): as the sequence (Q86VP1 1-237) above
The target in data set [6] is T1, TAX1BP1(1-237). In words: SEC. This is another data set of the same source.
The data set “GABARAP” concerns the target B1. The experiment in a line: ITC.
Another data set has as its target GABARAPL1 (UniProt Q9H0R8 1-117). In words: ITC.
The next data set concerns the target GABARAPL2 (UniProt P60520 1-117). In words: SEC.
The data set “crystal structure” concerns the molecule itself. In words: crystal structure.
For data set [7], the target named is T2, Trx-TAX1BP1(1-237). The experiment in a line: SEC.
Another data set deals with Nano-RB1CC1(1286-1594) (UniProt Q8TDY2 1286-1594). The experiment in a line: SEC.
The target in data set [8] is TAX1BP1(1-237)/RB1CC1(1286-1594) complex (Trx-TAX1BP1(1-237) with Nano-RB1CC1(1286-1594)) (UniProt Q86VP1 1-237; Q8TDY2 1286-1594). In words: SEC.
Chain of TAX1BP1(1-237)/RB1CC1(1286-1594) complex (Trx-TAX1BP1(1-237) with Nano-RB1CC1(1286-1594)) (Q86VP1 1-237, one chain of several): as the sequence (Q86VP1 1-237) above
Data set [9] deals with TAX1BP1(1-237)/RB1CC1(1286-1594) R1375A (UniProt Q86VP1 1-237; Q8TDY2 1286-1594, R1375A). In words: SEC.
Chain of TAX1BP1(1-237)/RB1CC1(1286-1594) R1375A (Q86VP1 1-237, stated change not applied, one chain of several): as the sequence (Q86VP1 1-237) above

Read-outs that look alike come from different tables or passages of the source.

As a reminder, the Kd is the concentration at which binding is half-saturated. In general, stoichiometry N refers to a count of units in the complex or per binding partner.

Chain of GABARAPL2 (P60520 whole entry): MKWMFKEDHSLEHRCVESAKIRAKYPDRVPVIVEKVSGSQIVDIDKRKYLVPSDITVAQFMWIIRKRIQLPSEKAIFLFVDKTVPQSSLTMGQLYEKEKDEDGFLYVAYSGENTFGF
Chain of GABARAPL1 (Q9H0R8 whole entry): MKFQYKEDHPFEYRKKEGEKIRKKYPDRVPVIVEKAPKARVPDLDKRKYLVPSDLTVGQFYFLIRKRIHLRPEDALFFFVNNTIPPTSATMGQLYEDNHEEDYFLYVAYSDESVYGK
Chain of TAX1BP1(1-237)/RB1CC1(1286-1395) complex (Q86VP1 1-237, one chain of several): as the sequence (Q86VP1 1-237) above

Regarding B1, the binding result (with TAX1BP1(1-237) [1]; in data set [2]; in data set [3]) was “binds” in each case.
As for B2, the binding result with TAX1BP1(1-237) [1] is on record as “binds”.
As for B3, the Kd in the data set with TAX1BP1(1-121) is roughly 4.91 µM; in the data set with TAX1BP1(1-237) [4], roughly 1.13 µM. In addition, the “stoichiometry N” value in the data set “AUC” turned out to be 2.
Consider ESVASHFALVTAYEDIKKRLKDSEKENSLLKKRIRFLEEKLIA (domain or fragment, UniProt Q9H6S1 33-75, looked up) [NAP1(33-75)], for which the binding result with Trx-TAX1BP1(1-237) [5] and with TAX1BP1(1-237) [6] was “binds” each time.
In the case of B4, the Kd with TAX1BP1(1-237) [4] was greater than 136 µM.
For SSPVEELLTMEDEGNSDMLVVTTKAGLLE (domain or fragment, UniProt Q86VP1 123-151, looked up) [TAX1BP1(123-151)], the equilibrium dissociation constant (Kd) with GABARAP amounted to 4.07 µM; in the data set with GABARAPL1 it was 9.54 µM. In the data set with GABARAPL2, the binding result is “binds”.
For B5, the “stoichiometry N” value in “crystal structure” is 2.
On to B6, for which the binding result (in the data set with Trx-TAX1BP1(1-237) [7]; with Nano-RB1CC1(1286-1594); in data set [8]) was “binds” each time.
In the case of B7, in [9], the binding result is recorded as “binds”.
EDEGNSDMLVVTTKAGLLE (domain or fragment, UniProt Q86VP1 133-151, looked up) [TAX1BP1(133-151)]: in the data set with GABARAP, the binding result is on record as “binds”.
